Data published in patent publication US20220348688A1 (PROMAB BIOTECHNOLOGIES, published 2022).

B1: PLAP h4-CD3e bispecific antibody (FIG. 1A structure) (bispecific antibody)
light: DIQMTQSPSSLSASVGDRVTITCRASENIYSYVAWYQQKPGKAPKLLIYNAKSLASGVPSRFSGSGSGTDFTLTISSLQPEDFATYYCQHHYVSPWTFGGGTKLEIKRTVAAPSVFIFPPSDEQLKSGTASVVCLLNNFYPREAKVQWKVDNALQSGNSQESVTEQDSKDSTYSLSSTLTLSKADYEKHKVYACEVTHQGLSSPVTKSFNRGEC
chain: QAVVTQEPSLTVSPGGTVTLTCGSSTGAVTTSNYANWVQEKPGQAFRGLIGGTNKRAPGTPARFSGSLLGGKAALTLSGAQPEDEAEYYCALWYSNLWVFGGGTKLTVLSSASTKGPSVFPLAPSSKSTSGGTAALGCLVKDYFPEPVTVSWNSGALTSGVHTFPAVLQSSGLYSLSSVVTVPSSSLGTQTYICNVNHKPSNTKVDKKVEPKSC
heavy 1: not shown
heavy 2: QVQLQESGPGLVKPSETLSLTCTVSGGSITSYGVSWIRQPPGKGLEWIGVIWEDGSTNYHSALISRVTISVDTSKNQFSLKLSSVTAADTAVYYCARPHYGSSYVGAMEYWGAGTTVTVSSTKGPSVFPLAPSSKSTSGGTAALGCLVKDYFPEPVTVSWNSGALTSGVHTFPAVLQSSGLYSLSSVVTVPSSSLGTQTYICNVNHKPSNTKVDKKVEPKSCDKTHTCPPCPAPEAAGGPSVFLFPPKPKDTLMISRTPEVTCVVVDVSHEDPEVKFNWYVDGVEVHNAKTKPREEQYNSTYRVVSVLTVLHQDWLNGKEYKCKVSNKALGAPIEKTISKAKGQPREPQVCTLPPSRDELTKNQVSLSCAVKGFYPSDIAVEWESNGQPENNYKTTPPVLDSDGSFFLVSKLTVDKSRWQQGNVFSCSVMHEALHNHYTQKSLSLSPGK
notes: Two PLAP Fab arms and one CD3e crossover Fab; knob-into-hole human IgG Fc with P329G, L234A, L235A; also called PLAP h4-CD3 antibody; PLAP h4-Cd3 antibody
B2: PLAP h4-CD3e bivalent antibody (PBM0015), FIG. 1B structure (bispecific antibody)
light: B1 light
heavy 1: not shown
heavy 2: B1 heavy 2
notes: Two PLAP Fab arms; the CD3 scFv is attached to the C-terminal end of CH3 of the knob chain; also called bivalent PLAP h4-CD3 Ab; bivalent humanized PLAPh4-CD3 antibody

Key:
[1] = target: T1, CD3 epsilon chain (CD3e) (human, UniProt P07766 23-207); assay: FACS on CD3-positive T cells
T1 construct: whole, on cells; also called CD3 antigen
Excerpt: The allophycocyanin (APC)-labeled anti-CD3 (eBioscience, San Diego, Calif.) antibody was used for FACS analysis using FACSCalibur (BD Biosciences).
CD3-positive T cells were used for testing binding to CD3.

[2] = target: T1, CD3 epsilon chain (CD3e); assay: FACS

T1 sequence (P07766 23-207): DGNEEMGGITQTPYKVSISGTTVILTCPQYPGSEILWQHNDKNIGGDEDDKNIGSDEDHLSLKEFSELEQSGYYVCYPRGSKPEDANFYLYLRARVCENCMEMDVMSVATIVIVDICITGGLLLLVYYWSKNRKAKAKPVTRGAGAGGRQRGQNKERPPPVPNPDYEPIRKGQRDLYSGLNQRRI

Row | Binder | binding result [1] | binding result [2]
1 | B1 | binds | –
2 | B2 | – | binds
